The test system of one data set is cells depleted for EYA4. Description: MTT cell cytotoxicity assay, genotoxic stress (ATR inhibitor or hydroxyurea). Format: cell-based. The conditions noted are these: EYA4-depleted versus control cells, FIG. 21B, FIG. 22A. The protocol:
For genotoxic stress, cells were seeded into 96-well plates (200 cells/well). Twenty-four hours after seeding, increasing concentrations of ATR inhibitor (AZ20) or hydroxyurea were added to the culture (24 h pulse). Cell cytotoxicity was measured after 96 h following manufacturer's protocol (Abcam ab211091). Briefly, 50 μL serum-free media (no phenol red) and 50 μL MTT reagent was added to each well and incubated at 37° C. for 3 h. MTT media was replaced with 150 μL of MTT solvent and incubated with agitation for 15 mn. Absorbance was measured at 590 nm. The cell viability was calculated using the following equation: […]
(Formazan colour is commonly taken as a measure of viable cells.)

The subject of another data set is TKCC02.1 cells. Kind of data set: Survival of TKCC02.1 cells, alone and in combination. Type of data set: cell-based. The conditions noted are these: TKCC02.1, at doses tested, FIG. 35, FIG. 36.
For data set [1], the system named is HeLa cells (empty vector or knocked down for EYA4). Kind of data set: MTT cell cytotoxicity assay with PARP inhibitor. Format: cell-based. To be noted: EYA4-depleted versus control cells, FIG. 5D. On the procedure:
HeLa cells (empty vector or knocked down for EYA4) were seeded in 96-well plates. After 24 hrs, increasing concentrations of PARP inhibitor (olaparib) were added. Cell cytotoxicity was measured following manufacturer's protocol (Abcam ab211091). Briefly, 50 μL serum-free media and 50 μL MTT reagent was added to each well and incubated at 37° C. for 3 hrs. MTT media was replaced with 150 μL of MTT solvent and incubated with agitation for 15 min. Absorbance was measured at 590 nm.

In the next data set the target is cy5-labeled ssDNA. Description: Microscale thermophoresis (MST) DNA binding, ssDNA. On the procedure: (§1) A total of 12 concentrations of ligand proteins (e.g., EYA (1-365)) were serially diluted by 1:1 using MST buffer from 5 uM to 2.4 nM, 10 ul of each dose of ligand protein was mixed with 10 ul of cy5-labeled dsDNA/ssDNA supernatant. The mixture of EYA and DNA was loaded into premium capillaries for MST assay with parameters set up at auto-detected excitation power and medium MST power. Binding affinity was analyzed by MO. Affinity Analysis software (version 2.1.3, NanoTemper Technologies) using the signal from an MST-on time of 20 s. Three individual experiments were merged to generate standard deviation.
(§2) Cy5-labeled oligo P1 (T. T. Paull Curr Opin Genet Dev 71, 55-62 (2021)). from IDT ([…]-[…]; SEQ ID NO:1) was used as the ssDNA substrate. dsDNA was generated by annealing Cy5-labeled oligo P1 with its exact complement P2 […]-AAATAAGTAAAAG […] (SEQ ID NO:2). The annealed product was purified by SDS-PAGE then concentrated and quantified. For the long system assays, substrates were sourced from NEB. The ssDNA is the ϕX174 virion DNA and the dsDNA its replicative form ϕX174 RF I DNA.
On the technique in general: In MST a laser heats a spot of the sample, and binding alters the fluorescence response.

The next data set has as its target cy5-labeled dsDNA. Description: Microscale thermophoresis (MST) DNA binding, dsDNA. The protocol:
as §1, §2

Data set [2] has as its target T1, RAD51 Y54F,Y315F (UniProt Q06609 Q06609:1-339, Y54F,Y315F). Kind of data set: MST; +/- 7.3 nM, Hill 3.31. To be noted: tags: pET11 construct, E. coli BLR(DE3)pLysS; label: Cy5.
Data set [3] addresses T2, RAD51 WT (UniProt Q06609 Q06609:1-339). Kind of data set: MST; +/- 18.1 nM, Hill 2.66. To be noted: tags: pET11 construct, E. coli BLR(DE3)pLysS; label: Cy5.
In data set [4] the target is T1, RAD51 Y54F,Y315F. Kind of data set: MST; +/- 11.7 nM, Hill 7.07. To be noted: tags: pET11 construct, E. coli BLR(DE3)pLysS; label: Cy5 on P1.
Data set [5] concerns the target T2, RAD51 WT. Kind of data set: MST; +/- 162.5 nM, Hill 2.30. To be noted: tags: pET11 construct, E. coli BLR(DE3)pLysS; label: Cy5 on P1.
The target in another data set is RAD51 Y54D,Y315D (UniProt Q06609 Q06609:1-339, Y54D,Y315D). Kind of data set: MST; +/- 0.4951 uM, Hill 2.67. The conditions noted are these: tags: pET11 construct, E. coli BLR(DE3)pLysS; label: Cy5 on P1.
Where [6] appears, read: EYA4 constructs binding ssDNA, Table 4.
[7] abbreviates: EYA4 constructs binding dsDNA, Table 4.
Setting [8] is: RAD51 proteins binding ssDNA, Table 5.
[9] abbreviates: RAD51 proteins binding dsDNA, Table 5.

Residue numbers refer to the chain shown, from its start. Names may count otherwise. “Also recorded” adds a separate entry of the source.

T2 sequence (Q06609 whole entry, one chain of several): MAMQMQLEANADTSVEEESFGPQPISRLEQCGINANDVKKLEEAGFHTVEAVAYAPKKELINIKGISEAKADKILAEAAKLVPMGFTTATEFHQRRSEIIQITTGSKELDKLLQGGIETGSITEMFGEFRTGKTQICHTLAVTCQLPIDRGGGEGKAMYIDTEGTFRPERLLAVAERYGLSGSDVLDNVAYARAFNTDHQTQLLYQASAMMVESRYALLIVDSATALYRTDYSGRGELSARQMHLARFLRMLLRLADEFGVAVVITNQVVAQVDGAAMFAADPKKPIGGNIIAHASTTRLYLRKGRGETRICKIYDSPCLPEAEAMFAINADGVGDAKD
Procedure for TKCC02.1 cells: Similar doses of EYA4i were tested alone and in combination with PARPi (olaparib) or Camptothecin (CPT).

With `C[C@@H]1COCCN1c1cc(C2(S(C)(=O)=O)CC2)nc(-c2cccc3[nH]ccc23)n1` [AZ20], in the data set on cells depleted for EYA4, the “sensitivity of cells depleted for EYA4 (MTT)” value was “sensitive”.

In the case of `O=C(c1cc(Cc2n[nH]c(=O)c3ccccc23)ccc1F)N1CCN(C(=O)C2CC2)CC1` [Olaparib], the “lethality / efficacy as single agent” value in the data set on TKCC02.1 cells (listed as PARPi) was “not lethal; also recorded: neither PARPi nor CPT are lethal”. Further, the “sensitivity of cells depleted for EYA4 (survival, MTT)” value in [1] is listed as “sensitive”.

`CC[C@@]1(O)C(=O)OCc2c1cc1n(c2=O)Cc2cc3ccccc3nc2-1` [CPT]: the “lethality / efficacy as single agent” value with TKCC02.1 cells is recorded as “not lethal; also recorded: neither PARPi nor CPT are lethal”.

Take `NC(=O)NO` [hydroxyurea]: the “sensitivity of cells depleted for EYA4 (MTT)” value in the data set with cells depleted for EYA4 is listed as “sensitive”.

B1: SQTQ: phosphomimetic EYA4 double mutant in the ATM-ATR consensus site SQTQ (S209D, T211D) (protein, UniProt O95677 1-639, looked up, variant S209D T211D)
Protein phosphatase EYA4: MEDSQDLNEQSVKKTCTESDVSQSQNSRSMEMQDLASPHTLVGGGDTPGSSKLEKSNLSSTSVTTNGTGGENMTVLNTADWLLSCNTPSSATMSLLAVKTEPLNSSETTATTGDGALDTFTGSVITSSGYSPRSAHQYSPQLYPSKPYPHILSTPAAQTMSAYAGQTQYSGMQQPAVYTAYSQTGQPYSLPTYDLGVMLPAIKTESGLDQDQSPLQSGCLSYSPGFSTPQPGQTPYSYQMPGSSFAPSSTIYANNSVSNSTNFSGSQQDYPSYTAFGQNQYAQYYSASTYGAYMTSNNTADGTPSSTSTYQLQESLPGLTNQPGEFDTMQSPSTPIKDLDERTCRSSGSKSRGRGRKNNPSPPPDSDLERVFVWDLDETIIVFHSLLTGSYAQKYGKDPPMAVTLGLRMEEMIFNLADTHLFFNDLEECDQVHIDDVSSDDNGQDLSTYSFATDGFHAAASSANLCLPTGVRGGVDWMRKLAFRYRRVKELYNTYKNNVGGLLGPAKRDAWLQLRAEIEGLTDSWLTNALKSLSIISTRSNCINVLVTTTQLIPALAKVLLYSLGGAFPIENIYSATKIGKESCFERIMQRFGRKVVYVVIGDGVEEEQAAKKHNMPFWRISSHSDLLALHQALELEYL
On to B1, for which the EC50 on cy5-labeled ssDNA (setting [6]) was determined as 0.515 µM; on cy5-labeled dsDNA (setting [7]), 2.2 µM. Moreover, on cy5-labeled dsDNA (DNA (type not stated), FIG. 3E), the Kd was above 2 µM.

B2: 1-365: N-terminally m-cherry-tagged EYA4 (aa 1-365), purified (protein, UniProt O95677 1-365, looked up, fragment)
chain: MEDSQDLNEQSVKKTCTESDVSQSQNSRSMEMQDLASPHTLVGGGDTPGSSKLEKSNLSSTSVTTNGTGGENMTVLNTADWLLSCNTPSSATMSLLAVKTEPLNSSETTATTGDGALDTFTGSVITSSGYSPRSAHQYSPQLYPSKPYPHILSTPAAQTMSAYAGQTQYSGMQQPAVYTAYSQTGQPYSLPTYDLGVMLPAIKTESGLSQTQSPLQSGCLSYSPGFSTPQPGQTPYSYQMPGSSFAPSSTIYANNSVSNSTNFSGSQQDYPSYTAFGQNQYAQYYSASTYGAYMTSNNTADGTPSSTSTYQLQESLPGLTNQPGEFDTMQSPSTPIKDLDERTCRSSGSKSRGRGRKNNPSPPPD
modifications: N-terminal mCherry tag
notes: N-terminally m-cherry-tagged EYA4 (aa 1-365), purified
Regarding B2, the EC50 on cy5-labeled ssDNA (setting [6]) was 0.303 µM; on cy5-labeled dsDNA (setting [7]), 0.733 µM. The Kd on cy5-labeled ssDNA (ssDNA binding, FIG. 3C) worked out at 0.303 µM; on cy5-labeled dsDNA (dsDNA binding, FIG. 3C), 0.732 µM.

B3: WT: purified wild type RAD51 (protein, UniProt Q06609 2-339, looked up)
DNA repair protein RAD51 …: AMQMQLEANADTSVEEESFGPQPISRLEQCGINANDVKKLEEAGFHTVEAVAYAPKKELINIKGISEAKADKILAEAAKLVPMGFTTATEFHQRRSEIIQITTGSKELDKLLQGGIETGSITEMFGEFRTGKTQICHTLAVTCQLPIDRGGGEGKAMYIDTEGTFRPERLLAVAERYGLSGSDVLDNVAYARAFNTDHQTQLLYQASAMMVESRYALLIVDSATALYRTDYSGRGELSARQMHLARFLRMLLRLADEFGVAVVITNQVVAQVDGAAMFAADPKKPIGGNIIAHASTTRLYLRKGRGETRICKIYDSPCLPEAEAMFAINADGVGDAKD
On to B3, for which the EC50 on cy5-labeled ssDNA (setting [8]) came out at 0.515 µM; on cy5-labeled dsDNA (setting [9]), 1.16 µM.

B4: YD, YD: double phospho-mimetic RAD51 (Y54D, Y315D) (protein, UniProt Q06609 2-339, looked up, variant Y54D Y315D)
DNA repair protein RAD51 …: B3 DNA repair protein RAD51 … with Y53D, Y314D
Regarding B4, the concentration for a half-maximal effect (EC50) is above 5 µM on cy5-labeled ssDNA (setting [8]) and 3.07 µM at cy5-labeled dsDNA (setting [9]).

B5: YF, YF: double-mutant RAD51 (Y54F, Y315F) that cannot be phosphorylated (protein, UniProt Q06609 2-339, looked up, variant Y54F Y315F)
DNA repair protein RAD51 …: B3 DNA repair protein RAD51 … with Y53F, Y314F
In the case of B5, the EC50 on cy5-labeled ssDNA (setting [8]) came to 0.427 µM; on cy5-labeled dsDNA (setting [9]), 0.561 µM.

B6: oligo P1 ssDNA (ssDNA)
DNA: TTATATCCTTTACTTTGAATTCTATGTTTAACCTTTTACTTATTTTGTATTAGCCGGATCCTTATTTCAATTATGTTCAT
For B6, the EC50 with RAD51 Y54F,Y315F [2] is 0.427 µM; with RAD51 WT [3], 0.515 µM.

B7: P1/P2 dsDNA (dsDNA)
DNA 1: B6 DNA
DNA 2: ATGAACATAATTGAAATAAGGATCCGGCTAATACAAAATAAGTAAAAGGTTAAACATAGAATTCAAAGTAAAGGATATAA
With B7, the EC50 came out at 0.561 µM with RAD51 Y54F,Y315F [4], 1.16 µM with RAD51 WT [5] and 3.07 µM in the data set with RAD51 Y54D,Y315D.

As usually defined, the EC50 is the concentration that produces a half-maximal response. Low readings indicate greater potency, high ones weaker potency. By Kd is commonly meant a measure of binding affinity in units of concentration. Higher therefore signals weaker binding.

The values above are taken from US20250009750A1, “METHODS OF TREATING DISORDERS ASSOCIATED WITH EYA OVEREXPRESSION AND MUTATIONS” (The Board of Regents of the University of Texas System, priority 2023, published 2025).
